Assay results: EP2127683A1 (Metheresis Translational Research SA, dated 2009)

Tests used:
[1] = molecular target: T1, Met on human tumour cells (GTL-16, FaDu) (human, UniProt P08581 25-1390); assay: cell-binding assay (Lindmo), radiolabelled antibody on serial dilution of paraformaldehyde-fixed GTL-16 cells
T1 construct: whole, on cells; Endogenous Met on 2% paraformaldehyde-fixed cells; also called Hepatocyte Growth Factor Receptor; HGFR

[2] = molecular target: T1, Met on human tumour cells (GTL-16, FaDu); assay: cell-binding assay (Lindmo), radiolabelled antibody on paraformaldehyde-fixed GTL-16 cells, double-reciprocal plot extrapolated
[3] = molecular target: T2, Met (UniProt P08581 25-932, limits assumed)
T2 construct: Target of the stated Kd; The assay and the construct are not described; also called Hepatocyte Growth Factor Receptor; HGFR

[4] = molecular target: T1, Met on human tumour cells (GTL-16, FaDu); assay: immunocytochemistry on fixed cytospins and immunohistochemistry on frozen xenograft sections, streptavidin-alkaline phosphatase

T1 sequence (P08581 25-1390): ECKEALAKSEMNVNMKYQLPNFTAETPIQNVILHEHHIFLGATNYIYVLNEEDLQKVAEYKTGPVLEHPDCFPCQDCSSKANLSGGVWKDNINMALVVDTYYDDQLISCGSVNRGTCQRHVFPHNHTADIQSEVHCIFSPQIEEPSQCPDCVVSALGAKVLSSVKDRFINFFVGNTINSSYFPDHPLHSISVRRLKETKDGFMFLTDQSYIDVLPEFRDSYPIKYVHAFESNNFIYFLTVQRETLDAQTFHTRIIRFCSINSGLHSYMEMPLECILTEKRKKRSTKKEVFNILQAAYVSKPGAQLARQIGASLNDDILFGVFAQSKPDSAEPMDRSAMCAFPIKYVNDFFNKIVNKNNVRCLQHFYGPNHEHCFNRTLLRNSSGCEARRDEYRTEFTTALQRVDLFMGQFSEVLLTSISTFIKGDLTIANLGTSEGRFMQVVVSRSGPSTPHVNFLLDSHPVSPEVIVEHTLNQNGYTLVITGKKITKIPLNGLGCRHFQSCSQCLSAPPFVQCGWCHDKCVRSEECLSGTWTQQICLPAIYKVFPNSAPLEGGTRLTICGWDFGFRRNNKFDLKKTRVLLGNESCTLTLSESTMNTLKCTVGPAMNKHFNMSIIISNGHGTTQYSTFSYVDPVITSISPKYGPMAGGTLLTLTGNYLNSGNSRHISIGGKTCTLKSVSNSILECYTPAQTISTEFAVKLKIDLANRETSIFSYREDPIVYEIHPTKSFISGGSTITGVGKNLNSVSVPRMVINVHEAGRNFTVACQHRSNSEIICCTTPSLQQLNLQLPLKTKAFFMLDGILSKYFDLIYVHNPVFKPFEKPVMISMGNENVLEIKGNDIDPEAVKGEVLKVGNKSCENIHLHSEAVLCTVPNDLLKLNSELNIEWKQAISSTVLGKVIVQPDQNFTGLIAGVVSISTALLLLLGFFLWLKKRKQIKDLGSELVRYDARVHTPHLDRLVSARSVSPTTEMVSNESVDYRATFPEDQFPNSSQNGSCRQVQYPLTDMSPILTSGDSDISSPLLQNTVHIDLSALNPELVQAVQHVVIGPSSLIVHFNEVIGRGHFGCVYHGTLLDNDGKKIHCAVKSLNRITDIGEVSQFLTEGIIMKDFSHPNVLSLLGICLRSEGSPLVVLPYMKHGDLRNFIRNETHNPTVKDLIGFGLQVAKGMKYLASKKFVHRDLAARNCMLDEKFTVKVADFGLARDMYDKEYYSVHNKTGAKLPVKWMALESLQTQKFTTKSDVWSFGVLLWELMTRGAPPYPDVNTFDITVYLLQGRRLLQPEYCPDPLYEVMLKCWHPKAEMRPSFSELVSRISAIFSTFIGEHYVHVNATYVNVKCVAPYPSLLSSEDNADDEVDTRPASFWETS
T2 sequence (P08581 25-932 limits assumed): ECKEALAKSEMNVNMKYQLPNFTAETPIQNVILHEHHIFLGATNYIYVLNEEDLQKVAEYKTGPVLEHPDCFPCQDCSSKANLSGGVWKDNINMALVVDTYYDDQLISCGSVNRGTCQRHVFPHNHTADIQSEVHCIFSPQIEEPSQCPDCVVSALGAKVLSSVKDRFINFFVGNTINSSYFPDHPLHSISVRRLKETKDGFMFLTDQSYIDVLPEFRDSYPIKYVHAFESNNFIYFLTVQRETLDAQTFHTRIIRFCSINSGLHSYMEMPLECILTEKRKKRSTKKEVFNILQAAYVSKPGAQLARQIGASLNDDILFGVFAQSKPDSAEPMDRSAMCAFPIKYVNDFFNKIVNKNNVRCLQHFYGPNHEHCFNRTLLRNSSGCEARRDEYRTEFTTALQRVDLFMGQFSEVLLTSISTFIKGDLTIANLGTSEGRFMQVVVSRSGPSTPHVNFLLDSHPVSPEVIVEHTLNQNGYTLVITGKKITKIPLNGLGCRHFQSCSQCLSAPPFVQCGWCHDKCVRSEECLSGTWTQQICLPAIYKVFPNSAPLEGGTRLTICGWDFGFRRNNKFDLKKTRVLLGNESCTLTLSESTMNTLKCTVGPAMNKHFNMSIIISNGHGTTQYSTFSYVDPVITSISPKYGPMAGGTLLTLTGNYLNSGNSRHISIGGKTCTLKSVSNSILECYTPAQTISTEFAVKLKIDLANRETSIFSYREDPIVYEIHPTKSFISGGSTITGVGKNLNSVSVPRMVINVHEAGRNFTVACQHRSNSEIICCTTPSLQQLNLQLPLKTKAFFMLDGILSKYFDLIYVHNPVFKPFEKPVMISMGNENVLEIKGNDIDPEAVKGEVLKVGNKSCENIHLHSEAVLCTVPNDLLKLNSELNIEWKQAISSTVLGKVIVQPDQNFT

Binder	immunoreactivity at the highest cell concentration [1]	immunoreactivity at infinite antigen excess [2]	Kd [3]	binding result [4]
89Zr-N-sucDf-DN30 (antibody, mouse IgG2a, kappa, V domains shown, N-succinyl-desferal (N-sucDf) chelate carrying 89Zr coupled to lysine residues, approximately 1 N-sucDf moiety per DN30 molecule; positions not given) VH: QVQLQQPGTELVKPGASVKLSCKASGYTFTSYWIHWVKQRPGQGLEWIGEINPSSGRTNYNEKFKNKVTVTVDKSSTTAYMQLSNLTSEDSAVYYCASRGYWGQGTTLTVSS VL: DIVLTQSPASLAVSLGQRATISCKASQSVDYDGGSYMSWFQQRPGQPPKLLISAASNLESGIPARFSGSGSGTDFTLNIHPVEEEDVATYYCQQSYEDPLTFGAGTKLELKR	> 70%	> 95%		
murine IgG2a MAb DN30 (antibody, V domains shown, Murine IgG2a from the hybridoma; also called anti-Met monoclonal antibody produced by the hybridoma cell line ICLC PD 05006) VH: QVQLQQPGTELVKPGASVKLSCKASGYTFTSYWIHWVKQRPGQGLEWIGEINPSSGRTNYNEKFKNKVTVTVDKSSTTAYMQLSNLTSEDSAVYYCASRGYWGQGTTLTVSS VL: DIVLTQSPASLAVSLGQRATISCKASQSVDYDGGSYMSWFQQRPGQPPKLLISAASNLESGIPARFSGSGSGTDFTLNIHPVEEEDVATYYCQQSYEDPLTFGAGTKLELKR			2.64 nM	
131I-DN30 (antibody, mouse IgG2a, kappa, V domains shown, radioiodinated with 131I (IODO-GEN method); positions not given) VH: QVQLQQPGTELVKPGASVKLSCKASGYTFTSYWIHWVKQRPGQGLEWIGEINPSSGRTNYNEKFKNKVTVTVDKSSTTAYMQLSNLTSEDSAVYYCASRGYWGQGTTLTVSS VL: DIVLTQSPASLAVSLGQRATISCKASQSVDYDGGSYMSWFQQRPGQPPKLLISAASNLESGIPARFSGSGSGTDFTLNIHPVEEEDVATYYCQQSYEDPLTFGAGTKLELKR	> 70%	> 95%		
biotinylated DN30 (antibody, mouse IgG2a, kappa, V domains shown, biotinylated; positions not given) VH: QVQLQQPGTELVKPGASVKLSCKASGYTFTSYWIHWVKQRPGQGLEWIGEINPSSGRTNYNEKFKNKVTVTVDKSSTTAYMQLSNLTSEDSAVYYCASRGYWGQGTTLTVSS VL: DIVLTQSPASLAVSLGQRATISCKASQSVDYDGGSYMSWFQQRPGQPPKLLISAASNLESGIPARFSGSGSGTDFTLNIHPVEEEDVATYYCQQSYEDPLTFGAGTKLELKR				binds
